# Experimental data from a protein production outcome set (Wang et al. 2014).
# Experiment: label from the status in PepcDB records
row,Sequence,protein production
1,MDRIIEKLDHGWWVVSHEQKLWLPKGELPYGERANFDLVGQRALQIGEWQGEPVWLVQQQRRHDMGSVRQVIDLDVGLFQLAGRGVQLAEFYRSHKYCGYCGHEMYPSKTEWAMLCSHCRERYYPQIAPCIIVAIRRDDSILLAQHTRHRNGVHTVLAGFVEVGETLEQAVAREVMEESGIKVKNLRYVTSQPWPFPQSLMTAFMAEYDSGDIVIDPKELLEANWYRYDDLPLLPPPGTVARRLIEDTVAMCRAEYE,not failed
2,MLTFETLCQWHRAWLGNVYSWAGQSRTVDMSKPNIRFASPVQIPKLAEKFEARYLPRFAELPEMTDEELVAFLAEVHVEFILIHPFREGNGRISRLLLDVMAAKAGAEPLDYSLWDEHKDFYFKAIQAGRDGDYQHVERLIRDVLEAQQLEHHHHHH,failed
3,MAQQNAEHIADWRGQSGERWAAYQARLDAMMAPFGQAAIEAAAPTTGERVLDVGCGAGASSRDLAARVGAEGHVLGVDISEPLIERARALAPQDMSVVFRVTDASRAELPDGAFDILFSRFGVMFFNDPTGAFAHMRRALKPGGRAAFVCWRGVTENDWMRLPMGAMKGILPSMTPPGPEAPGPFSFGDQERVERILTKAGFTDIAIEPFDASVSFGEGATRDAALDDAVNMTLEVGPLSRVLADQPDDIRDRASVAVRAALSGCPGERSVMINGATWIVTARNPAS,failed
4,MLIVIGYAVVILAVVGSFIGLGGHLGALYQPFELTLIAGAAVGAFMAGNSRKSLGLVAKAIPEAFRSSPYSKDVYMELMALLYVLLNKARREGLMAIESHIEDPLSSPIFNEYPRIMKDAKLMEFITDYLRIMISGNMSSFEIETLMDEEIETYRHEREVPTHALQQVADALPAFGIVAAVLGVIKALAAVDQPPAILGDLISKAMVGTFLGVLLAYGFVAPMAARIERRTSESVKVLECIKVTLLASMNGYPPQLAVEFGRKVLFSAVRPSFGELEEHVRQAKSAATGRA,failed
5,MWLMSHDMLAIIWFGLWGVIWTVYFILDGYALGNGMIFPFVTKDRQERNQLQEAIGPFWGGNEVWLITAGGATFAAFPVTYANMFSYLYTPLFLVLLALFARAAGLEFMHKDDSPIWQKTCKWAFAIGSFLIAFLFGVTFANLYYGLQIGKNGYEGNLLSLLNHYGILGGLFFTAIFVVSGALWVMIKTTGEVSDRAYKIARPFSMAAAIILAIFYVATANRTNLFQNFTEYPVLFILPVLAMLMSVLALIMVYKHKIGLAFTFVCLTIAMFMTTGFAGMFPRMLPSRINDAYSTTLYNAAGSQLNLKIMFFVAMVMVPIVIGYQLWSYSIFKNKIHKDSAKGYH,failed
6,MALREQWAETAMGVVVLALTAGFLTYSLTVGGVHMKRGDYEISAKFGEAGSLAPGAAVTVAGVKVGTVSQITLEPKTYLAVAKLSIDPTVKLPADSTAKITSDGLLGGAHVAIAPGASLDDLKPGGEIENTQGAVDLFGLIGSVIRPQGGAATTSTPAEANPATQPAESYLEHHHHHH,not failed
7,MDDAERERGPWHRNLIVLWFCTFVAGMAFSEIMPFLSLFVSQLGDFTKAQITFYSGLAFAADYAISAISAPLWGIIADKKGRKIMLLRASLGMAVAMGLMGFVTNVWQLVALRALQGVFAGFISNAQALVASQTPRKYSGRALSTLITGAVSGQLFGPVIGGLLAQLFSIRNTFFITAGLLMVAFLLSLFFVQEHFKPVAHHREPGDSRNPLAAFQNPRLIIVMLCSTAIVQFGNASIAPIISLYVRELMHYRGPITVVAGIIAALPGISNIFSAPRLGRYGDQHGSGKVLLFGYIFAVIMYFPQGIVTSVVALGILRFAIGISDGALYPEIQTVLTKNTPVHLTSTIFSYNQSFQAIGNMFGALLGGLVAGWFNYNAVFIMTALLLLINLGLILWLVPDIWKNGKRAVS,failed
8,MQRRLERFDAKLVQSGLDALLVTGQNNIYYLTDFWGTNATVFITKNRRLFLTDSRYTLIAKQSVHGFDIIESKDPLKDIVKFVEVDKLETIGFDNQVSFAYYQALQAIFEGYTLSPQTNFMEELRMIKDEKELATIRKACSISDRAFTDVLDFIKPGQTTELQVANFLDFRMREYGASGISFESIIASGYRSAMPHGVASDKVIQSGETLTMDFGCYYNHYVSDMTRTIHIGETTDEEREIYDIVLRSNRALIDATKAGMTRRDYDKVARDVIVEAGYGDYFTHGIGHGIGLDIHEIPYFGNSDETIEAGMVLTDEPGIYLADKYGVRIEDDIIITENGCEVITLAPKELIVL,failed
9,KYNPVVNPERALERRNWILGRMLQLGYINQTQYQQAVAEPINLDMPDRGVSNRYPYIGEMVRAELVEKFGEQAVDSGY,failed
10,MKYKLLVLDVDGTLLNDEKEITPRTLATLLKVQQMGVHIVLASGRPTYGILPLAKKLELGNYGGYILSYNGAQVINAKNGEVLLERRINPEMLPYLEKKARKNGFAIFTYTEDRMIADQADNEHILQEAFLNRMELIEEPEFSVAVDFAPSKCMLVSDDEEALIGLEEHWKKRLNGALDVFRSEPYFLEVLPCGIDKSTSLGALLSHLDITPEEIIVIGDGVCDVSMIQFAGLGIAMGNAQDSVKVCADVVTASNEEDGVALAVEKAILSEIRPAEIPLDQLNERARHALMGNLGIQYTYASEDRVEATMPVDERTRQPFGILHGGATLALAETVAGLGSMILCQPDEIVVGMQVSGNHMSSAHEGDTVRAVGTIIHKGRSSHVWNVDVFTSTDKLVSSIRVVNSILKKR,failed
11,MGITRKYIANLKDLPTRVQDENDCTSEPFTKPRLCCKMVNKIRNTLVSTETFLQKENITLDTYKRIIRDLVIHLDRVTTKVFVNSLPYNVMDDLGLQECEAFVLKWSEELRKLQSEYRNHLDQISNIERLRRSLNVCLKTREDQIQKVQKEFQWFINILKSLPKSSVCQDGFARIELLNLYRQWKKGQLISMLPIMDFIMKTLLKEKDSILKRKLQPKSA,failed
12,MTKTLVIIAHPDMARSRVNAAWAEALRRAGDITLRDLSALYPDGMIDGAVERSLLEAHDRIILQFPLTWYSCPPILSAWQIAILTRGWAYGPGGRALRLKTLGVALSTGSNGRDYQPDGRYGRTLEDVTVPFELMARHTGMHYLPPFTLTGVRECDDAAVAASARAYLDHVRTAKPRILASGRDDDRARTVYPLEAGAR,failed
13,MSYSTFALCHWARDRQRGRKTVADMVHRMTQATARVIGLEDRGELAVGKRADINVIDLAQLALRPPQVCHDLPAGGRRLIQRATGYSLTMLAGEIVLRDDEPLEHHHHHH,not failed
14,QSNQAWFGNDAFFNAVCFNEAVAKQLNLPKPTSWEDLTKPVYKGHIVMPNPASSGTGYMQVSAWLQNMGEDQAWNYMRDLDKNIAHYTHSGSKPCVQAGMGEVAIGISMASRGAKLKTQGAPLAVITPKGIGWESEAVGLVKESDAAKRVVDWSISKAANELYVEMYPVVGH,failed
15,MSAKKLFIQTLGCAMNVRDSEHMIAELTQKENYALTEDIKEADLILINTCSVREKPVHKLFSEVGGFEKVKKEGAKIGVCGCTASHLGNEIFKRAPYVDFVLGARNISKITQAIKTPKFMGVDIDYDESEFAFADFRNSIYKSYINISIGCDKHCTYCIVPHTRGDEISIPFNIIYKEAQKAIEKGAKEIFLLGQNVNNYGKRFRNEHKKMDFSDLLEELSTIEGLERIRFTSPHPLHMDDKFLEVFANNPKVCKSMHMPLQSGSSEILKAMKRGYTKEWYLNRALKLRELCPNVSISTDIIVAFPGESEKDFEETVDVLEKVRFEQIFSFKYSKRPLTKAATMPNQIDEEIASRRLSTLQNRHSEILDKIVKKQENKTFKVLFEELRAGNSIAGRTDNNFLVQVEGSEELLGQFKEVKITNAKRMVLYGEIVLEHHHHHH,failed
